According to patent publication US20210324360:

Target: SUMO-modified granzyme B
Sequence (chain, as listed by the source): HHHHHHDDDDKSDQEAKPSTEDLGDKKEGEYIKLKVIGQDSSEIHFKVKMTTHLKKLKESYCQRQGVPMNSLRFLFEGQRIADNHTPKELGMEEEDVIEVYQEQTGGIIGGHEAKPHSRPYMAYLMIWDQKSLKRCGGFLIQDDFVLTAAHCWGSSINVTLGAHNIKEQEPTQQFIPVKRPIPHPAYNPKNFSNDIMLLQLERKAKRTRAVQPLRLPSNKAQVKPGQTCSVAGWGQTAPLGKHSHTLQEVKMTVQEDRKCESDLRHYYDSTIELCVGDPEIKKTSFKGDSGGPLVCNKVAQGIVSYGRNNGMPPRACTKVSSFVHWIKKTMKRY

B1: Sentrin-specific protease 1 (SENP1) (protein)
chain: MDDIADRMRMDAGEVTLVNHNSVFKTHLLPQTGFPEDQLSLSDQQILSSRQGHLDRSFTCSTRSAAYNPSYYSDNPSSDSFLGSGDLRTFGQSANGQWRNSTPSSSSSLQKSRNSRSLYLETRKTSSGLSNSFAGKSNHHCHVSAYEKSFPIKPVPSPSWSGSCRRSLLSPKKTQRRHVSTAEETVQEEEREIYRQLLQMVTGKQFTIAKPTTHFPLHLSRCLSSSKNTLKDSLFKNGNSCASQIIGSDTSSSGSASILTNQEQLSHSVYSLSSYTPDVAFGSKDSGTLHHPHHHHSVPHQPDNLAASNTQSEGSDSVILLKVKDSQTPTPSSTFFQAELWIKELTSVYDSRARERLRQIEEQKALALQLQNQRLQEREHSVHDSVELHLRVPLEKEIPVTVVQETQKKGHKLTDSEDEFPEITEEMEKEIKNVFRNGNQDEVLSEAFRLTITRKDIQTLNHLNWLNDEIINFYMNMLMERSKEKGLPSVHAFNTFFFTKLKTAGYQAVKRWTKKVDVFSVDILLVPIHLGVHWCLAVVDFRKKNITYYDSMGGINNEACRILLQYLKQESIDKKRKEFDTNGWQLFSKKSQEIPQQMNGSDCGMFACKYADCITKDRPINFTQQHMPYFRKRMVWEILHRKLL
- GrB activity (cleavage of Ac-IEPD-pNA, absorbance at 405 nm) and western blot after co-incubation with Mock-transfected or SENP1-overexpressing HEK lysate: SENP1 activates SUMO-GrB
